Laboratory results reported in publication PMC5389473 (Nucleic Acids Research, 2016).
Ends that are not written are not given here. * marks the point of attachment. FITC = O=C1OC2(c3ccc(O)cc3Oc3cc(O)ccc32)c2ccc(NC(=S)*)cc21

Experiments:
Test in all cases: fluorescence polarisation; fluorescein-labelled pol β NLS peptide against the concentration of the Impα construct; apparent dissociation constants; as in ref. 56
Settings in all cases: both partners purified
[1] = target: T1, full-length murine Importin α1 (mImpα1) (mouse, UniProt P52293 1-529)
[2] = target: human Importin α5, residues 66–512 (hImpα5ΔIBB) (human, UniProt P52294 66-512)
[3] = target: T2, murine Importin α1 with the Importin β binding domain deleted (mImpα1ΔIBB) (mouse, UniProt P52293 70-529)
[4] = target: T1, full-length murine Importin α1 (mImpα1); remark: listed apart in the source
[5] = target: T2, murine Importin α1 with the Importin β …; remark: listed apart in the source

Chain of human Importin α5, residues 66–512 (hImpα5ΔIBB) (P52294 66-512, stated change not applied): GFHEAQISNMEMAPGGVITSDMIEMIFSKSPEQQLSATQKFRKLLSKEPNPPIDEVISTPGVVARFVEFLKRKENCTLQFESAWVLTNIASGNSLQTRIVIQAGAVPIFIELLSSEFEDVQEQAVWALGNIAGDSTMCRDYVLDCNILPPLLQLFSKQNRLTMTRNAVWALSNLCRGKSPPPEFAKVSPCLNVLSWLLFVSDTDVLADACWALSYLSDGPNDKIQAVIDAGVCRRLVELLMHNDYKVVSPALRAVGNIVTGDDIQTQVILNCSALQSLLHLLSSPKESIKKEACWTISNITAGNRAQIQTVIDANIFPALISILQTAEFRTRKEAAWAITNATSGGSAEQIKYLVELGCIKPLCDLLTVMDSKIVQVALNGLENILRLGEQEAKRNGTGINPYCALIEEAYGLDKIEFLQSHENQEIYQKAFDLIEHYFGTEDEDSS

Kd [1]: 61.8 ± 1.7 µM
Kd [2]: 0.72 ± 0.03 µM
Kd [3]: 3.6 ± 0.4 µM
Kd [4]: 54.3 µM
Kd [5]: 2 µM
Binder: SKRKAPQETLNGGK(FITC) [fluorescein-labeled pol β NLS peptide SKRKAPQETLNGG-Lys(FITC)]
